Test results from the supplement of paper PMC9170038.

System: MS2 coat protein
Test: apparent KD of MS2 coat protein; higher = weaker reporter binding
Settings: Eterna round: R107
How it was run: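 Designed RNA switches were transcribed on-chip from Illumina sequencing clusters and titrated with SNAP-549-labelled MS2 coat protein in twofold steps from 0.7 or 1.5 nM up to 3 µM. Each step lasted 0.8–1.5 h at first and 10–20 min by the end, in 100 mM Tris-HCl pH 7.5, 80 mM KCl and 4 mM MgCl2, without or with constant ligand. Apparent KD is the median, for each design, of fits to normalised cluster binding curves.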

[1] = input ligand: theophylline 20 uM
[2] = input ligand: theophylline 2 mM
[3] = input ligand: tryptophan 2.4 mM

| Sequence | apparent KD of MS2 coat protein (input ligand: arginine 13.2 mM) | apparent KD of MS2 coat protein (input ligand: none) | apparent KD of MS2 coat protein [1] | apparent KD of MS2 coat protein [2] | apparent KD of MS2 coat protein [3] |
| --- | --- | --- | --- | --- | --- |
| ACCGCAUCCGUAUAGGAUGCGGCCCAUGAAGGAGCGUGGGAAACCACAGGUAGGUCGCAUGGAAAACAUGAGGAUCACCCAUGUG [Alien] | 0.114 µM | 0.524 µM | 0.442 µM | 0.92 µM | 0.489 µM |
| AACAUGGGAUUAAAAUAAAUAAUAACUGAUACCAGACUAUAUAAUGUCCCUUGGCAGCAGAUACAUGAGGAUCACCCAUGUAUUA [JR_Nu_ExcTheophyA_Sub023] | 0.0122 µM | – | 0.0149 µM | – | 0.0128 µM |
| AGCAACAAGUCGGCCGCCACUCAUUUAACAUGAGGAUCACCCAUGUGAAUAACAUGGUUGUAAUAGAGGACCGGGACAGUUGCAU [JR_SSTryptoB_Sub016] | 0.205 µM | – | 0.283 µM | 0.401 µM | – |
| GCUAUGGCUGGAAGGAGCGUGAAUUUCAGCGAACAUGAGGAUCACCCAUGUAAGGAUAUGGCACAGGUAGGUCGCUAGCCAUAGC [#19 Same State - Arginine B] | 0.0136 µM | 0.0143 µM | 0.0212 µM | 0.0151 µM | 0.0134 µM |
| ACCUGUACGAAAAGUGCAGGACACGGAUAACGAGGACCGGUACGGCCGCCACUCGGAAUAACCUGAGGAUCACCCUGGUACCGUG [TrypAS 8 #AlternativeMS2 #Zipper #StaticStem] | 0.0258 µM | 0.0187 µM | 0.024 µM | 0.0232 µM | 0.019 µM |
| ACGAACGAUAGUGAUACCAGACGUACAUGAGGAUCACCCAUGUUAUACACAUGGUUUAUUGUCCCUUGGCAGCACGAUAAGUUCG [JR_ExcTheophyB_Sub004] | 0.109 µM | – | 0.263 µM | – | 0.282 µM |
| GCGGAAUAAUCGGCCGCCACUAUGAGACAGGAAACUGUCACAUGAGGAUCACCCAUGUAUCCUCAUAGGACCGGGAUUAAAACGC [Melting point difference] | 0.0768 µM | – | 0.109 µM | 0.1 µM | – |
| UAUCCACAUGAGGAUCACCCAUGUUAGGAAGGAGCGGUGAAUGAACCAGGUAGGUCGCCUAGCUGAGGACCAUCGAUGGAUUCGU [Exclusion - Arginine A (Freestyle 15)] | 0.017 µM | 0.0203 µM | 0.0255 µM | 0.0275 µM | 0.0201 µM |
| AGACAUGUAAGAUAAAUGACUUAUACAGAUACCAGACUGUCUAAUGUCCCUUGGCAGCUGCAUAACAUGAGGAUCACCCAUGUAA [JR_ExcTheophyA_Sub010] | 0.0223 µM | – | 0.0242 µM | – | 0.0269 µM |
| AGCUCGCGUCCUCAAGCGUCAAAGACGCGUCGAGGACCGGUACGGCCGCCACUCGACCUGAGGAUCACCCAGGUUUAAGCGAGCA [TrypAX 6 #SwitchBubble #AlternativeMS2 #MS2Late #CuTurnoff] | 0.0127 µM | 0.0178 µM | 0.02 µM | 0.0181 µM | 0.115 µM |
| CUCGGAACAAUCGAUACCAGUUCUCAUGGAUUGCAGCAGUACAUGAGGAUCACCCAUGUAAACCCUUGGCAGCGAAGAACAAGAC [theeternabot_exclusion_MS2_Theo_B_18] | 0.026 µM | – | 0.0482 µM | – | 0.0334 µM |
| GUUGGUUUGCGAAGGAGCGGGUAUGUUGUCUACUUGAUCCUAACAUGAGGAUCACCCAUGUCCCAGGUAGGUCGCGCGGGCUUUG [12.aC] | 0.037 µM | 0.0451 µM | 0.0639 µM | 0.081 µM | 0.0468 µM |
| CGAAAGCAGUGAUCCAGCUUUCGCCUGGAAGGAGCGAGCGAAAGCUCAGGUAGGUCGCCAGAAACAUGAGGAUCACCCAUGUAAU [(A)''-(M)'-(A)'-(Arg1)-(Arg2)-(M1)-(M2)_Design8] | 0.0366 µM | 0.0654 µM | 0.082 µM | 0.145 µM | 0.0755 µM |
| ACAGGUACGCCUAUUAAAAUAAAACACCUACGAGGACCGGUACGGCCGCCACUCGGGUGACAUGAGGAUCACCCAUGUGGCUAAA [Ceeron] | 0.101 µM | – | 0.61 µM | 0.851 µM | – |
| CAUGAAGUAACUGAUACCAGUGUACACAUGAGGAUCACCCAUGUGUUGGGUUUUGUUGUACACCCUUGGCAGCAGAAUCUUUAUG [AstrosExyTheB#8] | 0.0424 µM | – | 0.0843 µM | – | 0.0512 µM |
| AGCGACAUGCGUGAUACCAGCUACAUGAGGAUCACCCAUGUACGUCAGAAAUGACUGUGUAGCCCUUGGCAGCAUAGUGCAUGUC [Exclusion - Theophylline B (Freestyle 20)] | 0.0346 µM | – | 0.0542 µM | – | 0.0348 µM |
| GACAUGAGGAUCGAUACCAGCGACAUGAGGAUCACAUGAGGAUCACCCAUGUGUAGUAUACGCCCUUGGCAGCGAACAUGAGGAU [Same State Theophylline B 3] | 0.0743 µM | 0.0514 µM | 0.0712 µM | 0.0392 µM | 0.0323 µM |
